Data published in paper doi:10.1101/2020.05.16.099382 (bioRxiv, 2020).
Where a chain is given by its changes, count along the chain named. Numbers in names are those of the source. Where two headings read alike, the source gives them in different places.

B1: Rubisco activase ('Rca-like' protein) of Nostoc sp. PCC 7120 (natural protein, UniProt P58555 2-414, looked up)
chain: SYYIAPRFLDKLAVHITKNFLNIPGVRVPLILGIHGRKGEGKTFQCELAFEKMGIEVTLISGGELESPDAGDPARLIRLRYRETAELIKVRGKMCVLMINDLDAGAGRFDEGTQYTVNTQLVNATLMNIADNPTDVQLPGSYDSNPIRRVPIIVTGNDFSTLYAPLIRDGRMEKFYWEPNRDDKVGIVGGIFAEDGLSQREIEQLVDTFPKQSIDFFSALRSRIYDIQIRDFIHKVGFERISLRVVNSLEAPPEFKKPDFSLAHLIESGNLVLGEQQRVDNSQLVDEYNRLNRGRGYQTAPPPEAPVIQPVNNSSHKQKTSNTHLSLETQEQIRQILSQGHKITFEHVDARRFRTGSWQSCGTLHIDAESDAISTLEACLVDYDGEYVRMVGIDPKGKRRVVETIIQRPNGKN
B2: NosRca-IFmut (NosRca V91E/R92G/G93N/L244D/N248A/L250A) (natural protein, Nostoc sp. PCC 7120, UniProt P58555 2-414, looked up)
chain: B1 chain with V90E, R91G, G92N, L243D, N247A, L249A
B3: Rubisco small subunit of Nostoc sp. PCC 7120 (natural protein, UniProt P06514 1-109, looked up)
chain: MQTLPKERRYETLSYLPPLTDVQIEKQVQYILSQGYIPAVEFNEVSEPTELYWTLWKLPLFGAKTSREVLAEVQSCRSQYPGHYIRVVGFDNIKQCQILSFIVHKPSRY
B4: Rubisco large subunit of Nostoc sp. PCC 7120 (natural protein, UniProt P00879 1-476, looked up)
chain: MSYAQTKTQTKSGYKAGVQDYRLTYYTPDYTPKDTDILAAFRVTPQPGVPFEEAAAAVAAESSTGTWTTVWTDLLTDLDRYKGRCYDIEPVPGEDNQFIAYIAYPLDLFEEGSITNVLTSIVGNVFGFKALRALRLEDIRFPVAYIKTFQGPPHGIQVERDKLNKYGRPLLGCTIKPKLGLSAKNYGRAVYECLRGGLDFTKDDENINSAPFQRWRDRFLFVADAITKAQAETGEIKGHYLNVTAPTCEEMLKRAEYAKELKQPIIMHDYLTAGFTANTTLARWCRDNGVLLHIHRAMHAVIDRQKNHGIHFRVLAKALRLSGGDHIHTGTVVGKLEGERGITMGFVDLLRENYVEQDKSRGIYFTQDWASLPGVMAVASGGIHVWHMPALVEIFGDDSVLQFGGGTLGHPWGNAPGATANRVALEACVQARNEGRNLAREGNDVIREAAKWSPELAVACELWKEIKFEFEAMDTV
B5: NosRcaΔC (NosRca lacking the C-terminal 123 residues: linker and SSUL domain) (domain or fragment, Nostoc sp. PCC 7120, UniProt P58555 2-291, looked up)
chain: SYYIAPRFLDKLAVHITKNFLNIPGVRVPLILGIHGRKGEGKTFQCELAFEKMGIEVTLISGGELESPDAGDPARLIRLRYRETAELIKVRGKMCVLMINDLDAGAGRFDEGTQYTVNTQLVNATLMNIADNPTDVQLPGSYDSNPIRRVPIIVTGNDFSTLYAPLIRDGRMEKFYWEPNRDDKVGIVGGIFAEDGLSQREIEQLVDTFPKQSIDFFSALRSRIYDIQIRDFIHKVGFERISLRVVNSLEAPPEFKKPDFSLAHLIESGNLVLGEQQRVDNSQLVDEYNR
B6: NosRcaΔC V91E/R92G/G93N (domain or fragment, Nostoc sp. PCC 7120, UniProt P58555 2-291, looked up)
chain: B5 chain with V90E, R91G, G92N
B7: NosRcaΔC L244D/N248A/L250A (domain or fragment, Nostoc sp. PCC 7120, UniProt P58555 2-291, looked up)
chain: B5 chain with L243D, N247A, L249A
B8: NosRcaΔC P140G/Y143A/D144A (domain or fragment, Nostoc sp. PCC 7120, UniProt P58555 2-291, looked up)
chain: B5 chain with P139G, Y142A, D143A

Legend:
[1] = target: B4; test: cryo-EM structure
[2] = target: the molecule itself; test: SEC-MALS
[3] = target: B4; test: cryo-EM structure; remark: listed apart in the source
[4] = target: the molecule itself; test: cryo-EM structure

Binder | stoichiometry N [2] | also measured
B1 | 6 | binding result [1]: binds
B2 | 6 | –
B3 | – | binding result [3]: binds
B4 | – | binding result [4]: binds
B5 | 6 | –
B6 | 6 | –
B7 | 6 | –
B8 | 6 | –
